Measured values taken from patent US9845340B2, “Peptides that specifically bind HGF receptor (cMet) and uses thereof” (Dyax Corp., priority 2003, dated 2017).

Assays:
cMet-Fc fusion protein = cMet-Fc fusion protein (Homo sapiens, UniProt P08581); test: Protein phage ELISA: peptide-displaying phage binding to soluble cMet-Fc versus TRAIL-Fc; settings: phage isolate; cMet-Fc vs. TRAIL-Fc
Description: Protein phage ELISAs using peptide-displaying phage isolates from the various selection campaigns were performed to determine specificity of the peptides for cMet versus an unrelated Fc-fusion protein (TRAIL-Fc). Briefly, 384-well plates were coated overnight at 4 C with 0.5 μg/mL of cMet-Fc fusion protein or TRAIL-Fc fusion protein (background). The plates were blocked for 2 hours 37C with 3% (w/v) BSA in PBS containing 0.05% (v/v) Tween-20 (PBST). The plates were washed with PBST and 100 μL of peptide-displaying phage were added to each well. The plates were incubated for 2 hours at room temperature and washed with PBST. cMet-binding peptide-displaying phage were detected using an HRP-conjugated anti-M13 antibody.

[1] = biological target: T1, 3T3 cells that over-express human cMet (Homo sapiens, UniProt P08581); test: Whole cell ELISA of peptide-displaying phage; type: cell-based; settings: phage isolate; 3T3 cells expressing human cMet vs. non-expressing 3T3 cells
T1 construct: expressed in transfected cells; host or cells: 3T3 cells
T1 sequence (P08581 25-1390): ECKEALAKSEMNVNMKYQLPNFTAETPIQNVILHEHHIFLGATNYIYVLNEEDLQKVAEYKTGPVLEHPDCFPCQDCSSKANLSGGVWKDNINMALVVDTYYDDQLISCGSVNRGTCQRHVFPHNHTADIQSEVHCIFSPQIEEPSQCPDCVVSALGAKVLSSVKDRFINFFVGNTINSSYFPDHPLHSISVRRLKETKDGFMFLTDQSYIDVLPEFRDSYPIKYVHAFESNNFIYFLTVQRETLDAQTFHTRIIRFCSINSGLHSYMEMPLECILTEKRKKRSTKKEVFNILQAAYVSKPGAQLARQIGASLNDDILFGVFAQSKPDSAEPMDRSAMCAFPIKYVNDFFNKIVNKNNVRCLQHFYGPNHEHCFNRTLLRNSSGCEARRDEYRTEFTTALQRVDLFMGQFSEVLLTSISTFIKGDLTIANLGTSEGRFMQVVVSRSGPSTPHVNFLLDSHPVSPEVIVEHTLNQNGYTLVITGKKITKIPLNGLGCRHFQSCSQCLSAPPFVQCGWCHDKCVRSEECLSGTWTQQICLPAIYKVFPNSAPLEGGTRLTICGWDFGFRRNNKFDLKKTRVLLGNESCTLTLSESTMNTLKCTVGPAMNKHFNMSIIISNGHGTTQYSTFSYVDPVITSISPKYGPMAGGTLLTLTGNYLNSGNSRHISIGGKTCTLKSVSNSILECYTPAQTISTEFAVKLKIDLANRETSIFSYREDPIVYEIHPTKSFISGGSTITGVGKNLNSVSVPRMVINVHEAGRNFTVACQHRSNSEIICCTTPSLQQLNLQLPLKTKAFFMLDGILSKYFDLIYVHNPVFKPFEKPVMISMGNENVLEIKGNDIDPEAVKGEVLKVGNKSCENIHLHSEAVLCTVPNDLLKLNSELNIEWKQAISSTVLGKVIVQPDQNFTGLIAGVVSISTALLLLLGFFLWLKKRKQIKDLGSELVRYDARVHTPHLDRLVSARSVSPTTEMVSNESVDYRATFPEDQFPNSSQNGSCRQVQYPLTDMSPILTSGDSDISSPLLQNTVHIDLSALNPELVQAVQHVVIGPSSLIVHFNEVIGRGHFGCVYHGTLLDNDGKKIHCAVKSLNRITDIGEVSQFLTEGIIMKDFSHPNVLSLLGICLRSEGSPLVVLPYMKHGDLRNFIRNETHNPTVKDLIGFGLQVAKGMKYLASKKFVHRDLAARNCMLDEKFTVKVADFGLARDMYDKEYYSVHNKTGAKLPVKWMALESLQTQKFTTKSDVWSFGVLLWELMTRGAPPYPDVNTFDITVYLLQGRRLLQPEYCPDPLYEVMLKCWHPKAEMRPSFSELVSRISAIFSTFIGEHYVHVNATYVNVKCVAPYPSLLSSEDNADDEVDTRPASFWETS
Description: Whole cell ELISAs were performed using 3T3 cells that over-express human cMet. […] Briefly, 96-well plates were seeded with 10^5 cells per well. The plates were centrifuged for 5 minutes at 1600 rpm to pellet the cells. The resulting cell layer was fixed with 0.1% (v/v) glutaraldehyde for 12 minutes at 37 C. […] Peptide-displaying phage also were blocked in the above solution for 1 hour at 37 C. 100 μL of blocked phage was then added to each well and the plates were incubated for 1 hour at room temperature. The plates were washed with PBST. cMet-binding peptide-displaying phage were detected using an HRP-conjugated anti-M13 antibody.

Sequence of cMet-Fc fusion protein (P08581 25-307 limits assumed): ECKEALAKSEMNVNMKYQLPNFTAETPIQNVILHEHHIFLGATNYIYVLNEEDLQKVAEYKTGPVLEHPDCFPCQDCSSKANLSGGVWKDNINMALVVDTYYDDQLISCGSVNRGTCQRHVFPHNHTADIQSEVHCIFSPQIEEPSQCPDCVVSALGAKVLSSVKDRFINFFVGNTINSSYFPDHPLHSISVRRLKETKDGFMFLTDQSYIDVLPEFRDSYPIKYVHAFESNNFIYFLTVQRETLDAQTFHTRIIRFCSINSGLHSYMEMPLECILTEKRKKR
Sequence of cMet-Fc fusion protein (P08581 with tags, fused parts or gaps limits assumed): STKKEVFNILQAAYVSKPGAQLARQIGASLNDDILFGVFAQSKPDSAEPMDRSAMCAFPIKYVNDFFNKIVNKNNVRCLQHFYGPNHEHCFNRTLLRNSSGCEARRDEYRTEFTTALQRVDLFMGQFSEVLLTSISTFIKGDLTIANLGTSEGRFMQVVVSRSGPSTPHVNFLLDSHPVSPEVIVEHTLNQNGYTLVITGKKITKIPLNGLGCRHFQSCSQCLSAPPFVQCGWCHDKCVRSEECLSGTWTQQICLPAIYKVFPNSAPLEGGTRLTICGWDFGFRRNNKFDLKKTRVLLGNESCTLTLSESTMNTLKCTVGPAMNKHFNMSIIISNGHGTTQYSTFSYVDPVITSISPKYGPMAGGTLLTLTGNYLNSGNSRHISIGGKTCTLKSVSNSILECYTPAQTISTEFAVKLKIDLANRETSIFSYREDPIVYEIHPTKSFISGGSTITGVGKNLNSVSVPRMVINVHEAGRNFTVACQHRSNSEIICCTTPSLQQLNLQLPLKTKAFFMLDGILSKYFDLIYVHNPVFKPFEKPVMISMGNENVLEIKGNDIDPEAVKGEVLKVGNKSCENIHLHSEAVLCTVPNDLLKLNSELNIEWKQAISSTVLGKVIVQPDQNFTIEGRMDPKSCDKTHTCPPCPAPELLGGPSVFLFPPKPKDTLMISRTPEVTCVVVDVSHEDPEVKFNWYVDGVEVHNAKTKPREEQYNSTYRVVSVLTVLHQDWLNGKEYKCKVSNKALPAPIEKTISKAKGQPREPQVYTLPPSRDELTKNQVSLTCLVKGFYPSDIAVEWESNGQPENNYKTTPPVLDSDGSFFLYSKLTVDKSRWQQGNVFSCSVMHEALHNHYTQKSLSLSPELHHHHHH

Compound	Protein ELISA (cMet-Fc fusion protein)	WC ELISA [1]
AQLFQYLWHDDPQGAFFQLSMW (Synthetically generated cMet-binding peptide sequence) [SEQ ID NO: 483]	3.1 fold over background	1.23 fold over background
AQWGAVDNDWYDWEMEQIWMFE (Synthetically generated cMet-binding peptide sequence) [SEQ ID NO: 491]	3.2 fold over background	1.23 fold over background
GSHHTCLDGFAGWRCTEVAP (Synthetically generated cMet-binding peptide sequence) [SEQ ID NO: 366]	10.4 fold over background	1.33 fold over background
AQFMYEKEHYVMSISLPGLWFY (Synthetically generated cMet-binding peptide sequence) [SEQ ID NO: 486]	3.0 fold over background	1.63 fold over background
AGLLGCWDMPMECTGEGT (Synthetically generated cMet-binding peptide sequence) [SEQ ID NO: 036]	3.6 fold over background	1.27 fold over background
AGPWKCTGPPTFSCIQFGT (Synthetically generated cMet-binding peptide sequence) [SEQ ID NO: 090]	19.5 fold over background	1.23 fold over background
GDPDECQLNRETFEVWCPWHDP (Synthetically generated cMet-binding peptide sequence) [SEQ ID NO: 401]	4.3 fold over background	1.23 fold over background
AGVTNCNLSTMFCFLHGT (Synthetically generated cMet-binding peptide sequence) [SEQ ID NO: 026]	3.8 fold over background	1.30 fold over background
AGNYWCSGPPSFICHAVGT (Synthetically generated cMet-binding peptide sequence) [SEQ ID NO: 091]	8.9 fold over background	1.27 fold over background
AQVGESLDDGWTFFSDKWFDFF (Synthetically generated cMet-binding peptide sequence) [SEQ ID NO: 485]	3.0 fold over background	1.17 fold over background
GSSHLCNPEFCHFTAP (Synthetically generated cMet-binding peptide sequence) [SEQ ID NO: 003]	3.2 fold over background	1.30 fold over background
GSTKVCHEKWNQLFCHNQAP (Synthetically generated cMet-binding peptide sequence) [SEQ ID NO: 368]	7.0 fold over background	1.27 fold over background
AGAFFCSGPPTFMCSLYGT (Synthetically generated cMet-binding peptide sequence) [SEQ ID NO: 098]	6.2 fold over background	1.27 fold over background
AGEIFCVGPPTFTCMWTGT (Synthetically generated cMet-binding peptide sequence) [SEQ ID NO: 096]	9.7 fold over background	1.27 fold over background
GSELFCFYHHQGYEGCDVLAP (Synthetically generated cMet-binding peptide sequence) [SEQ ID NO: 385]	4.8 fold over background	1.27 fold over background
AGHYWCAGPPTFICMGPGT (Synthetically generated cMet-binding peptide sequence) [SEQ ID NO: 062]	10.2 fold over background	1.40 fold over background

Compound	Protein ELISA (cMet-Fc fusion protein)	WC ELISA [1]
CC(=O)N[C@@H](C)C(=O)NCC(=O)N[C@@H](Cc1c[nH]cn1)C(=O)N[C@@H](C)C(=O)N[C@@H](Cc1c[nH]c2ccccc12)C(=O)N[C@H]1CSSC[C@@H](C(=O)N[C@@H](Cc2c[nH]c3ccccc23)C(=O)N2CCC[C@H]2C(=O)N2CCC[C@H]2C(=O)NCC(=O)N[C@H](C(=O)NCC(=O)NCC(=O)NCC(=O)N[C@@H](CCCCNC(=O)c2ccc3c(c2)C(=O)OC32c3ccc(O)cc3Oc3cc(O)ccc32)C(N)=O)[C@@H](C)O)NC(=O)[C@H](CCC(=O)O)NC(=O)[C@H](Cc2ccccc2)NC(=O)[C@H](CCCNC(=N)N)NC(=O)[C@@H]2CCCN2C(=O)[C@@H]2CCCN2C(=O)CNC(=O)[C@H](CO)NC1=O [SEQ ID NO: 061]	3.2 fold over background	1.27 fold over background
AGPYSCHSESHDCKLMGT (Synthetically generated cMet-binding peptide sequence) [SEQ ID NO: 032]	3.2 fold over background	1.27 fold over background
GSLYRCLGEASPTPPCAYEAP (Synthetically generated cMet-binding peptide sequence) [SEQ ID NO: 380]	4.0 fold over background	1.37 fold over background
GDYYQCQFSKDMYSERCWPYDP (Synthetically generated cMet-binding peptide sequence) [SEQ ID NO: 397]	7.0 fold over background	1.30 fold over background
GSFAPCGWPSFAIDCIAEAP (Synthetically generated cMet-binding peptide sequence) [SEQ ID NO: 367]	7.7 fold over background	1.30 fold over background
AGVIVCNLSMMYCLYPGT (Synthetically generated cMet-binding peptide sequence) [SEQ ID NO: 023]	3.2 fold over background	1.33 fold over background
AGNYFCAGSPSFSCYFMGT (Synthetically generated cMet-binding peptide sequence) [SEQ ID NO: 054]	13.4 fold over background	1.33 fold over background
GSQNNCEYGSRGSSFCLAMAP (Synthetically generated cMet-binding peptide sequence) [SEQ ID NO: 377]	6.4 fold over background	1.23 fold over background
AGQYLCTQAALGCPEWGT (Synthetically generated cMet-binding peptide sequence) [SEQ ID NO: 029]	4.3 fold over background	1.23 fold over background
AGYFECKGPPTFECWLSGT (Synthetically generated cMet-binding peptide sequence) [SEQ ID NO: 060]	8.1 fold over background	1.43 fold over background
AGQAVCEWGPFWCQMQGT (Synthetically generated cMet-binding peptide sequence) [SEQ ID NO: 031]	3.2 fold over background	1.30 fold over background
GDPWWCFEKDSFIPFACWHHDP (Synthetically generated cMet-binding peptide sequence) [SEQ ID NO: 396]	7.4 fold over background	1.30 fold over background
GDNRFCSWVYNVDDWWCVDNDP (Synthetically generated cMet-binding peptide sequence) [SEQ ID NO: 398]	6.2 fold over background	1.30 fold over background
AQDNTADQMFNGFHVLAMYMV (Synthetically generated cMet-binding peptide sequence) [SEQ ID NO: 481]	3.3 fold over background	1.37 fold over background
AQMYQTPDGVIGKFVDWMFN (Synthetically generated cMet-binding peptide sequence) [SEQ ID NO: 455]	8.0 fold over background	1.33 fold over background
